Paper PMC11589706, “Cryo-EM structure of PML RBCC dimer reveals CC-mediated octopus-like nuclear body assembly mechanism” (Cell Discovery, 2024)

Legend:
[1] = target: the molecule itself; assay: two-hybrid; CheckMate mammalian two-hybrid (Promega) in HeLa Pml-/- cells; pG5-luc, pBIND-PML and pACT-PML at 1:1:1; dual-luciferase read-out 24 h after transfection; normalised to pACT vector:pBIND-PML = 1
[2] = target: the molecule itself; assay: SEC; analytical size exclusion on Superdex 200 Increase 10/300 GL in 20 mM HEPES, pH 7.4, 100 mM NaCl, 4% glycerol; all truncations N-terminally fused to MBP

Protein | percent reduction of PML self-interaction (relative luciferase activity) compared to control [1] | binding result [2]
full-length PML L240R, mammalian two-hybrid fusions (natural protein, human, UniProt P29590-5 1-633, looked up, PML (TRIM19) isoform IV, full length, L240R; source: HeLa Pml-/- cells, transfected, mammalian two-hybrid fusion) MEPAPARSPRPQQDPARPQEPTMPPPETPSEGRQPSPSPSPTERAPASEEEFQFLRCQQCQAEAKCPKLLPCLHTLCSGCLEASGMQCPICQAPWPLGADTPALDNVFFESLQRRLSVYRQIVDAQAVCTRCKESADFWCFECEQLLCAKCFEAHQWFLKHEARPLAELRNQSVREFLDGTRKTNNIFCSNPNHRTPTLTSIYCRGCSKPLCCSCALLDSSHSELKCDISAEIQQRQEERDAMTQALQEQDSAFGAVHAQMHAAVGQLGRARAETEELIRERVRQVVAHVRAQERELLEAVDARYQRDYEEMASRLGRLDAVLQRIRTGSALVQRMKCYASDQEVLDMHGFLRQALCRLRQEEPQSLQAAVRTDGFDEFKVRLQDLSSCITQGKDAAVSKKASPEAASTPRDPIDVDLPEEAERVKAQVQALGLAEAQPMAVVQSVPGAHPVPVYAFSIKGPSYGEDVSNTTTAQKRKCSQTQCPRKVIKMESEEGKEARLARSSPEQPRPSTSKAVSPPHLDGPPSPRSPVIGSEVFLPNSNHVASGAGEAEERVVVISSSEDSDAENSSSRELDDSSSESSDLQLEGPSTLRVLDENLADPQAEDRPLVFFDLKIDNESGFSWGYPHPFLI | 83.9% | –
full-length PML L247R, mammalian two-hybrid fusions (natural protein, human, UniProt P29590-5 1-633, looked up, PML (TRIM19) isoform IV, full length, L247R; source: HeLa Pml-/- cells, transfected, mammalian two-hybrid fusion) MEPAPARSPRPQQDPARPQEPTMPPPETPSEGRQPSPSPSPTERAPASEEEFQFLRCQQCQAEAKCPKLLPCLHTLCSGCLEASGMQCPICQAPWPLGADTPALDNVFFESLQRRLSVYRQIVDAQAVCTRCKESADFWCFECEQLLCAKCFEAHQWFLKHEARPLAELRNQSVREFLDGTRKTNNIFCSNPNHRTPTLTSIYCRGCSKPLCCSCALLDSSHSELKCDISAEIQQRQEELDAMTQARQEQDSAFGAVHAQMHAAVGQLGRARAETEELIRERVRQVVAHVRAQERELLEAVDARYQRDYEEMASRLGRLDAVLQRIRTGSALVQRMKCYASDQEVLDMHGFLRQALCRLRQEEPQSLQAAVRTDGFDEFKVRLQDLSSCITQGKDAAVSKKASPEAASTPRDPIDVDLPEEAERVKAQVQALGLAEAQPMAVVQSVPGAHPVPVYAFSIKGPSYGEDVSNTTTAQKRKCSQTQCPRKVIKMESEEGKEARLARSSPEQPRPSTSKAVSPPHLDGPPSPRSPVIGSEVFLPNSNHVASGAGEAEERVVVISSSEDSDAENSSSRELDDSSSESSDLQLEGPSTLRVLDENLADPQAEDRPLVFFDLKIDNESGFSWGYPHPFLI | 75.8% | –
full-length PML I279R, mammalian two-hybrid fusions (natural protein, human, UniProt P29590-5 1-633, looked up, PML (TRIM19) isoform IV, full length, I279R; source: HeLa Pml-/- cells, transfected, mammalian two-hybrid fusion) MEPAPARSPRPQQDPARPQEPTMPPPETPSEGRQPSPSPSPTERAPASEEEFQFLRCQQCQAEAKCPKLLPCLHTLCSGCLEASGMQCPICQAPWPLGADTPALDNVFFESLQRRLSVYRQIVDAQAVCTRCKESADFWCFECEQLLCAKCFEAHQWFLKHEARPLAELRNQSVREFLDGTRKTNNIFCSNPNHRTPTLTSIYCRGCSKPLCCSCALLDSSHSELKCDISAEIQQRQEELDAMTQALQEQDSAFGAVHAQMHAAVGQLGRARAETEELRRERVRQVVAHVRAQERELLEAVDARYQRDYEEMASRLGRLDAVLQRIRTGSALVQRMKCYASDQEVLDMHGFLRQALCRLRQEEPQSLQAAVRTDGFDEFKVRLQDLSSCITQGKDAAVSKKASPEAASTPRDPIDVDLPEEAERVKAQVQALGLAEAQPMAVVQSVPGAHPVPVYAFSIKGPSYGEDVSNTTTAQKRKCSQTQCPRKVIKMESEEGKEARLARSSPEQPRPSTSKAVSPPHLDGPPSPRSPVIGSEVFLPNSNHVASGAGEAEERVVVISSSEDSDAENSSSRELDDSSSESSDLQLEGPSTLRVLDENLADPQAEDRPLVFFDLKIDNESGFSWGYPHPFLI | 73.7% | –
full-length PML V123R, mammalian two-hybrid fusions (natural protein, human, UniProt P29590-5 1-633, looked up, PML (TRIM19) isoform IV, full length, V123R; source: HeLa Pml-/- cells, transfected, mammalian two-hybrid fusion) MEPAPARSPRPQQDPARPQEPTMPPPETPSEGRQPSPSPSPTERAPASEEEFQFLRCQQCQAEAKCPKLLPCLHTLCSGCLEASGMQCPICQAPWPLGADTPALDNVFFESLQRRLSVYRQIRDAQAVCTRCKESADFWCFECEQLLCAKCFEAHQWFLKHEARPLAELRNQSVREFLDGTRKTNNIFCSNPNHRTPTLTSIYCRGCSKPLCCSCALLDSSHSELKCDISAEIQQRQEELDAMTQALQEQDSAFGAVHAQMHAAVGQLGRARAETEELIRERVRQVVAHVRAQERELLEAVDARYQRDYEEMASRLGRLDAVLQRIRTGSALVQRMKCYASDQEVLDMHGFLRQALCRLRQEEPQSLQAAVRTDGFDEFKVRLQDLSSCITQGKDAAVSKKASPEAASTPRDPIDVDLPEEAERVKAQVQALGLAEAQPMAVVQSVPGAHPVPVYAFSIKGPSYGEDVSNTTTAQKRKCSQTQCPRKVIKMESEEGKEARLARSSPEQPRPSTSKAVSPPHLDGPPSPRSPVIGSEVFLPNSNHVASGAGEAEERVVVISSSEDSDAENSSSRELDDSSSESSDLQLEGPSTLRVLDENLADPQAEDRPLVFFDLKIDNESGFSWGYPHPFLI | 18.5% | –
full-length PML F177R, mammalian two-hybrid fusions (natural protein, human, UniProt P29590-5 1-633, looked up, PML (TRIM19) isoform IV, full length, F177R; source: HeLa Pml-/- cells, transfected, mammalian two-hybrid fusion) MEPAPARSPRPQQDPARPQEPTMPPPETPSEGRQPSPSPSPTERAPASEEEFQFLRCQQCQAEAKCPKLLPCLHTLCSGCLEASGMQCPICQAPWPLGADTPALDNVFFESLQRRLSVYRQIVDAQAVCTRCKESADFWCFECEQLLCAKCFEAHQWFLKHEARPLAELRNQSVRERLDGTRKTNNIFCSNPNHRTPTLTSIYCRGCSKPLCCSCALLDSSHSELKCDISAEIQQRQEELDAMTQALQEQDSAFGAVHAQMHAAVGQLGRARAETEELIRERVRQVVAHVRAQERELLEAVDARYQRDYEEMASRLGRLDAVLQRIRTGSALVQRMKCYASDQEVLDMHGFLRQALCRLRQEEPQSLQAAVRTDGFDEFKVRLQDLSSCITQGKDAAVSKKASPEAASTPRDPIDVDLPEEAERVKAQVQALGLAEAQPMAVVQSVPGAHPVPVYAFSIKGPSYGEDVSNTTTAQKRKCSQTQCPRKVIKMESEEGKEARLARSSPEQPRPSTSKAVSPPHLDGPPSPRSPVIGSEVFLPNSNHVASGAGEAEERVVVISSSEDSDAENSSSRELDDSSSESSDLQLEGPSTLRVLDENLADPQAEDRPLVFFDLKIDNESGFSWGYPHPFLI | 45.1% | –
full-length PML L178R, mammalian two-hybrid fusions (natural protein, human, UniProt P29590-5 1-633, looked up, PML (TRIM19) isoform IV, full length, L178R; source: HeLa Pml-/- cells, transfected, mammalian two-hybrid fusion) MEPAPARSPRPQQDPARPQEPTMPPPETPSEGRQPSPSPSPTERAPASEEEFQFLRCQQCQAEAKCPKLLPCLHTLCSGCLEASGMQCPICQAPWPLGADTPALDNVFFESLQRRLSVYRQIVDAQAVCTRCKESADFWCFECEQLLCAKCFEAHQWFLKHEARPLAELRNQSVREFRDGTRKTNNIFCSNPNHRTPTLTSIYCRGCSKPLCCSCALLDSSHSELKCDISAEIQQRQEELDAMTQALQEQDSAFGAVHAQMHAAVGQLGRARAETEELIRERVRQVVAHVRAQERELLEAVDARYQRDYEEMASRLGRLDAVLQRIRTGSALVQRMKCYASDQEVLDMHGFLRQALCRLRQEEPQSLQAAVRTDGFDEFKVRLQDLSSCITQGKDAAVSKKASPEAASTPRDPIDVDLPEEAERVKAQVQALGLAEAQPMAVVQSVPGAHPVPVYAFSIKGPSYGEDVSNTTTAQKRKCSQTQCPRKVIKMESEEGKEARLARSSPEQPRPSTSKAVSPPHLDGPPSPRSPVIGSEVFLPNSNHVASGAGEAEERVVVISSSEDSDAENSSSRELDDSSSESSDLQLEGPSTLRVLDENLADPQAEDRPLVFFDLKIDNESGFSWGYPHPFLI | 44.9% | –
full-length PML V123R/L178R, mammalian two-hybrid fusions (natural protein, human, UniProt P29590-5 1-633, looked up, PML (TRIM19) isoform IV, full length, V123R and L178R; source: HeLa Pml-/- cells, transfected, mammalian two-hybrid fusion) MEPAPARSPRPQQDPARPQEPTMPPPETPSEGRQPSPSPSPTERAPASEEEFQFLRCQQCQAEAKCPKLLPCLHTLCSGCLEASGMQCPICQAPWPLGADTPALDNVFFESLQRRLSVYRQIRDAQAVCTRCKESADFWCFECEQLLCAKCFEAHQWFLKHEARPLAELRNQSVREFRDGTRKTNNIFCSNPNHRTPTLTSIYCRGCSKPLCCSCALLDSSHSELKCDISAEIQQRQEELDAMTQALQEQDSAFGAVHAQMHAAVGQLGRARAETEELIRERVRQVVAHVRAQERELLEAVDARYQRDYEEMASRLGRLDAVLQRIRTGSALVQRMKCYASDQEVLDMHGFLRQALCRLRQEEPQSLQAAVRTDGFDEFKVRLQDLSSCITQGKDAAVSKKASPEAASTPRDPIDVDLPEEAERVKAQVQALGLAEAQPMAVVQSVPGAHPVPVYAFSIKGPSYGEDVSNTTTAQKRKCSQTQCPRKVIKMESEEGKEARLARSSPEQPRPSTSKAVSPPHLDGPPSPRSPVIGSEVFLPNSNHVASGAGEAEERVVVISSSEDSDAENSSSRELDDSSSESSDLQLEGPSTLRVLDENLADPQAEDRPLVFFDLKIDNESGFSWGYPHPFLI | 33.1% | –
full-length PML V123R/F177R, mammalian two-hybrid fusions (natural protein, human, UniProt P29590-5 1-633, looked up, PML (TRIM19) isoform IV, full length, V123R and F177R; source: HeLa Pml-/- cells, transfected, mammalian two-hybrid fusion) MEPAPARSPRPQQDPARPQEPTMPPPETPSEGRQPSPSPSPTERAPASEEEFQFLRCQQCQAEAKCPKLLPCLHTLCSGCLEASGMQCPICQAPWPLGADTPALDNVFFESLQRRLSVYRQIRDAQAVCTRCKESADFWCFECEQLLCAKCFEAHQWFLKHEARPLAELRNQSVRERLDGTRKTNNIFCSNPNHRTPTLTSIYCRGCSKPLCCSCALLDSSHSELKCDISAEIQQRQEELDAMTQALQEQDSAFGAVHAQMHAAVGQLGRARAETEELIRERVRQVVAHVRAQERELLEAVDARYQRDYEEMASRLGRLDAVLQRIRTGSALVQRMKCYASDQEVLDMHGFLRQALCRLRQEEPQSLQAAVRTDGFDEFKVRLQDLSSCITQGKDAAVSKKASPEAASTPRDPIDVDLPEEAERVKAQVQALGLAEAQPMAVVQSVPGAHPVPVYAFSIKGPSYGEDVSNTTTAQKRKCSQTQCPRKVIKMESEEGKEARLARSSPEQPRPSTSKAVSPPHLDGPPSPRSPVIGSEVFLPNSNHVASGAGEAEERVVVISSSEDSDAENSSSRELDDSSSESSDLQLEGPSTLRVLDENLADPQAEDRPLVFFDLKIDNESGFSWGYPHPFLI | 39.1% | –
MBP-PML_(46–323) (domain or fragment, human, UniProt P29590 46-323, looked up, PML (TRIM19), human, residues 46-323; source: E. coli BL21(DE3), purified; not shown: MBP, N-terminal, kept) PASEEEFQFLRCQQCQAEAKCPKLLPCLHTLCSGCLEASGMQCPICQAPWPLGADTPALDNVFFESLQRRLSVYRQIVDAQAVCTRCKESADFWCFECEQLLCAKCFEAHQWFLKHEARPLAELRNQSVREFLDGTRKTNNIFCSNPNHRTPTLTSIYCRGCSKPLCCSCALLDSSHSELKCDISAEIQQRQEELDAMTQALQEQDSAFGAVHAQMHAAVGQLGRARAETEELIRERVRQVVAHVRAQERELLEAVDARYQRDYEEMASRLGRLDAVL | – | binds
MBP-PML_(46–287) (domain or fragment, human, UniProt P29590 46-287, looked up, PML (TRIM19), human, residues 46-287; source: E. coli BL21(DE3), purified; not shown: MBP, N-terminal, kept) PASEEEFQFLRCQQCQAEAKCPKLLPCLHTLCSGCLEASGMQCPICQAPWPLGADTPALDNVFFESLQRRLSVYRQIVDAQAVCTRCKESADFWCFECEQLLCAKCFEAHQWFLKHEARPLAELRNQSVREFLDGTRKTNNIFCSNPNHRTPTLTSIYCRGCSKPLCCSCALLDSSHSELKCDISAEIQQRQEELDAMTQALQEQDSAFGAVHAQMHAAVGQLGRARAETEELIRERVRQVV | – | binds
